{"source": "paper PMC8113551", "about": "(2021)"}
{"biological_target": "GP[change] (Zaire ebolavirus | , UniProt Q05320)", "test": "BLI", "units": {"Kd": "pM"}}
{"binder": "c4G7 (antibody, V domains shown) VH: EVQLQESGPELEMPGASVKISCKASGSSFTGFSMNWVKQSNGKSLEWIGNIDTYYGGTTYNQKFKGKATLTVDKSSSTAYMQLKSLTSEDSAVYYCARSAYYGSTFAYWGQGTLVTVS VL: DIQMTQSPASLSASVGETVTITCRASENIYSYLAWYQQKQGKSPQLLVYNAKTLIEGVPSRFSGSGSGTQFSLKINSLQPEDFGSYFCQHHFGTPFTFGSGTELEIK", "Kd": "< 1"}
{"binder": "mAb100 (antibody, V domains shown) VH: QVQLQESGPGLVKPSDTLSLTCTVSGGSLSSFYWSWIRQPPGKGLEWIGYIYYSGSPNYSPSLESRVTMSVDTTRNQISLKLDSVTAADTAVYYCVRASRSYYWGSYRPTAFDSWGQGTLVTVSS VL: SYELTQPLSVSVSPGQTAIFTCSGDNLGDKYVCWFQQRPGQSPMLLIYQDNKRPSGIPERFSGSNSGNTATLTISGTQSTDEADYYCQTWDSTVVFGGGTKLTVL", "Kd": "< 1"}
{"binder": "mAb114 (antibody, V domains shown) VH: EVQLVESGGGLIQPGGSLRLSCAASGFALRMYDMHWVRQTIDKRLEWVSAVGPSGDTYYADSVKGRFAVSRENAKNSLSLQMNSLTAGDTAIYYCVRSDRGVAGLFDSWGQGILVTVSS VL: DIQMTQSPSSLSASVGDRITITCRASQAFDNYVAWYQQRPGKVPKLLISAASALHAGVPSRFSGSGSGTHFTLTISSLQPEDVATYYCQNYNSAPLTFGGGTKVEIK", "Kd": "< 1"}
{"binder": "c13C6 (antibody, V domains shown) VH: DVKLLESGGGLVQPGGSLKLSCAASGFSLSTSGVGVGWFRQPSGKGLEWLALIWWDDDKYYNPSLKSQLSISKDFSRNQVFLKISNVDIADTATYYCARRDPFGYDNAMGYWGQGTSVTVS VL: DIVMTQSPLSLSTSVGDRVSLTCKASQNVGTAVAWYQQKPGQSPKLLIYSASNRYTGVPDRFTGSGSGTDFTLTISNMQSEDLADYFCQQYSSYPLTFGAGTKLELR", "Kd": "< 1"}
{"binder": "KZ52 (antibody, V domains shown) VH: EVQLLESGGGLVKPGGSLRLSCAASGFTLINYRMNWVRQAPGKGLEWVSSISSSSSYIHYADSVKGRFTISRDNAENSLYLQMNSLRAEDTAVYYCVREGPRATGYSMADVFDIWGQGTMVTVSS VL: not shown", "Kd": "< 1"}
{"binder": "c2G4 (antibody, V domains shown) VH: EVQLQESGGGLMQPGGSMKLSCVASGFTFSNYWMNWVRQSPEKGLEWVAEIRLKSNNYATHYAESVKGRFTISRDDSKRSVYLQMNTLRAEDTGIYYCTRGNGNYRAMDYWGQGTSVTVS VL: DIQMTQSPASLSVSVGETVSITCRASENIYSSLAWYQQKQGKSPQLLVYSATILADGVPSRFSGSGSGTQYSLKINSLQSEDFGTYYCQHFWGTPYTFGGGTKLEIK", "Kd": "< 1"}
{"binder": "ADI-15878 (antibody, V domains shown) VH: QVQLVQSGVTLVQPGGSLRVSCAASGFTFSSYAMSWVRQAPGKGLEWVSAISGLGGSTYYADSVKGRFTISRDNSKNTLYLQMNSLRAEDTAVYYCAKDHRVWAAGYHFDYWGQGALVTVSS VL: DIVLTQSPSTLSASVGDRVTITCRASQSISSWLAWYQQKPGEAPKLLISDASSLESGVPSRFSGSGSGTEFTLTISSLQPDDFATYYCQQYYSSPTFGGGTKVEIK", "Kd": "< 1"}
{"binder": "CA45 (antibody, V domains shown) VH: QVQLQEWGEGLVKPSETLSLTCAVYGGSISGYYHWNWIRLPPGKGLEWIGNIDGNSASTNYNPSLKTRVTISKDTSKNQISLKVRSLTAADTAVYYCARDPGFTIFGVVITSWSGLDSWGQGAVVTVSS VL: DIQMTQSPSSLSASVGDTVTITCRASQSISNNLAWYQQRPRRAPQLLIYAASNLASGVPSRFSGSGSGTDFTLTISSLQAEDFAAYYCQQHNTLPLTFGGGTKVEIK", "Kd": "< 1"}
{"binder": "ADI-15946 (antibody, V domains shown) VH: EVQLVESGGGLVKPGGSLRLSCAASGFTFSNAWMSWVRQAPGKGLEWVGRIKSKTDGGTIDYAAPVKGRFTISRDDSKNTVYLQMTSLKTEDTAVYYCTTYTEDMRYFDWLLRGGETFDYWGQGTLVTVSS VL: DIRLTQSPSSLSASVGDRVTITCRASHYISTYLNWYQQKPGKAPKLLIYAASNLQSGVPSRFSGSGFGTDFSLTISSLQPEDFATYHCQQSYSTPGRYTFGQGTKVEIK", "Kd": "< 1"}
